Test results published in PMC10076285, “Oncogenic CALR mutant C-terminus mediates dual binding to the thrombopoietin receptor triggering complex dimerization and activation” (Nature Communications, 2023).

Target: T1, Recombinant human TpoR extracellular domain D1-D4 with mature N-glycans (human, UniProt P40238 26-489, mature N-glycans (4 N-glycans on the ECD))
T1 construct: thrombopoietin receptor (TpoR), human, extracellular domain D1-D4, starts at Q26 and ends at T489; details in Supplementary Methods; also called TpoR D1-D4; hTpoR D1-D4; source: Schneider S2 cells, purified; not shown: His tag, C-terminal, kept
T1 sequence (looked up): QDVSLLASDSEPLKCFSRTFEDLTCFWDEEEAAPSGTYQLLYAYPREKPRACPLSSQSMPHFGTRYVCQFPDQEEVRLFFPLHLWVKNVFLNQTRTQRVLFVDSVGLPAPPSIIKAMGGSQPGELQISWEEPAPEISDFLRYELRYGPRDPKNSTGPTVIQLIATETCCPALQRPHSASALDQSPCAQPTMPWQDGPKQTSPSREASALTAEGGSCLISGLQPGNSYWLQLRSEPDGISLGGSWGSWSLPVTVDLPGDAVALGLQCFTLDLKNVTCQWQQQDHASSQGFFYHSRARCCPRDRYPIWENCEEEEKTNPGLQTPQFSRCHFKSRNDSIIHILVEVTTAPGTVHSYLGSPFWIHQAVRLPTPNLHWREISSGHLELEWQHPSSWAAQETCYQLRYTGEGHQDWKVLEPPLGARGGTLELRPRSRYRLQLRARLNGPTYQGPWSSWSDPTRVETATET
Assay: MST; CALR del52 labelled with RED-NHS at 20 nM; label-free TpoR D1-D4 titrated 0.15 nM to 5 μM; Tris-based MST buffer with 0.01% Tween 20; Monolith NT.115, 40% LED, medium MST power
Conditions: both partners purified

Kd: ~104 nM
B1: Recombinant human CALR del52 (natural protein)
chain: EPAVYFKEQFLDGDGWTSRWIESKHKSDFGKFVLSSGKFYGDEEKDKGLQTSQDARFYALSASFEPFSNKGQTLVVQFTVKHEQNIDCGGGYVKLFPNSLDQTDMHGDSEYNIMFGPDICGPGTKKVHVIFNYKGKNVLINKDIRSKDDEFTHLYTLIVRPDNTYEVKIDNSQVESGSLEDDWDFLPPKKIKDPDASKPEDWDERAKIDDPTDSKPEDWDKPEHIPDPDAKKPEDWDEEMDGEWEPPVIQNPEYKGEWKPRQIDNPDYKGTWIHPEIDNPEYSPDPSIYAYDNFGVLGLDLWQVKSGTIFDNFLITNDEAYAEEFGNETWGVTKAAEKQMKDKQDEEQRTRRMMRTKMRMRRMRRTRRKMRRKMSPARPRTSCREACLQGWTEA
modifications: RED-NHS dye on lysines (in the MST experiment only)
